Assay results taken from patent US20210332146A1 (ACADEMIA SINICA, published 2021).
Values belong to the binder of their own block, whether it stands above or below them.

Experiments:
[1] = biological target: T1, FcγRIIIA recombinant protein (UniProt P08637 17-208, limits assumed); assay: SPR, Biacore T200; antibody captured on anti-human Fab chip, FcγRIIIA injected (12.5-200 nM), single cycle kinetics, 1:1 model; Rituxan reference, not glycoengineered; upper end of the range
T1 construct: also called FcRIIIA
Experimental: (§1) FcγRIIIA was transfected into HEK-293 cell line to express recombinant protein. The secreted FcγRIIIA recombinant protein was purified and then diluted to serial concentration in HBS-EP buffer (200 nM, 100 nM, 50 nM, 25 nM, and 12.5 nM). […] A serial titration of FcγRIIIA was injected and bound at the flow rate of […]. Single cycle kinetics data was fitted into 1:1 binding model using Biacore T200 evaluation software to measure the equilibrium constant (Ka/Kd).

[2] = biological target: T2, CD20 (human, UniProt P11836 1-297); assay: flow cytometry on Ramos cells (CD20+ B lymphoma), MFI against antibody concentration
T2 construct: whole, on cells; Target on B-lymphoma cells in flow cytometry; also called CD20 antigen; B-lymphocyte-restricted differentiation antigen
T2 sequence (looked up): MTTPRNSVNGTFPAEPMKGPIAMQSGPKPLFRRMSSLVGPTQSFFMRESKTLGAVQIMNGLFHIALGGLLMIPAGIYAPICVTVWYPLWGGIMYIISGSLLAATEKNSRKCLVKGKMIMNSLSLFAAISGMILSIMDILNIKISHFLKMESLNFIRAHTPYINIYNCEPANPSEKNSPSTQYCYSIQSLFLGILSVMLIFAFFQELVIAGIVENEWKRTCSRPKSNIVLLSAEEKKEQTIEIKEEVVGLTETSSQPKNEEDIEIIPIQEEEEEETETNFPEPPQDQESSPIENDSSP
Experimental: Binding to B-lymphoma cells. The binding of the antibodies was investigated in CD20⁺ B lymphoma cell lines (Ramos and SKW6.4) and analyzed on flow cytometry. The cells in PBS containing 1% fetal bovine serum at 2×10⁵/well on microplate were incubated on ice for 1 hr with antibodies of interest at different concentrations. The cells are washed, re-suspended in the PBS buffer, and incubated with the detecting goat anti-hIgG-Fcγ-PE on ice for 30 min. The cells are washed and subjected to analysis on FACS.

[3] = biological target: T2, CD20; assay: flow cytometry on SUDHL4 (SU-DHL4) cells, MFI against antibody concentration
[4] = biological target: T1, FcγRIIIA recombinant protein; assay: SPR, Biacore T200; antibody captured on anti-human Fab chip, FcγRIIIA injected (12.5-200 nM), single cycle kinetics, 1:1 model
Experimental: as §1

[5] = biological target: T1, FcγRIIIA recombinant protein; assay: SPR as above; category letter explained in the note of Table 4
Experimental: as §1

[6] = biological target: T1, FcγRIIIA recombinant protein; assay: >
Experimental: as §1

T1 sequence (P08637 17-208 limits assumed): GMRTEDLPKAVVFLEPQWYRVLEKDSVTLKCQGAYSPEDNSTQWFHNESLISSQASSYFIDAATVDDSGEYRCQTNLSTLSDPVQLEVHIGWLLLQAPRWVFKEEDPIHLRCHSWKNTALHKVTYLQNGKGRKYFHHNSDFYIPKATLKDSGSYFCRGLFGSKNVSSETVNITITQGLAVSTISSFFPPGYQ

B1: Rituximab (antibody, human IgG1, kappa)
heavy: not shown
light: QIVLSQSPAILSASPGEKVTMTCRASSSVSYIHWFQQKPGSSPKPWIYATSNLASGVPVRFSGSGSGTSYSLTISRVEAEDAATYYCQQWTSNPPTFGGGTKLEIKRTVAAPSVFIFPPSDEQLKSGTASVVCLLNNFYPREAKVQWKVDNALQSGNSQESVTEQDSKDSTYSLSSTLTLSKADYEKHKVYACEVTHQGLSSPVTKSFNRGEC
modifications: heterogeneous N-glycans at Asn-297 of the Fc (more than 50 glycoforms; greater than 90% of N-glycans are fucosylated)
notes: Chimeric anti-CD20 IgG made in CHO cells, purchased from Genentech; DrugBank DB00073; also called Rituxan; RTX
- Kd [1]: ≤ 300 nM
- EC50 (read off the curve) [2]: ~0.6 µg/mL
- EC50 (read off the curve) [3]: ~0.6 µg/mL
- Kd [4]: 100 nM

B5: anti-CD20 GAb102 (antibody, human IgG1, kappa)
heavy: not shown
light: B1 light
modifications: homogeneous N-glycan at Asn-297, no core fucose: glycan-102 (SiaGal2GlcNAc2Man3GlcNAc) transferred onto the GlcNAc of GAb201
notes: the text gives them the other way round
- Fold (increase against Rituxan) [5]: > 30 fold

B6: anti-CD20 GAb101 (antibody, human IgG1, kappa)
heavy: not shown
light: B1 light
modifications: homogeneous N-glycan at Asn-297, no core fucose: glycan-101 (Sia2Gal2GlcNAc2Man3GlcNAc) transferred onto the GlcNAc of GAb201; 2,6 sialic acid linkage
notes: as for B5
- Fold (increase against Rituxan) [6]: 30 fold
- EC50 (read off the curve) [3]: ~0.7 µg/mL

Next, values leading:

- Fold (increase against Rituxan) [5]: > 30 fold
B2: anti-CD20 GAb105 (antibody, human IgG1, kappa)
heavy: not shown
light: B1 light
modifications: homogeneous N-glycan at Asn-297, no core fucose: glycan-105 (GalGlcNAc2Man3GlcNAc) transferred onto the GlcNAc of GAb201
notes: as for B5

- Fold (increase against Rituxan) [5]: > 30 fold
B3: anti-CD20 GAb104 (antibody, human IgG1, kappa)
heavy: not shown
light: B1 light
modifications: homogeneous N-glycan at Asn-297, no core fucose: glycan-104 (Gal2GlcNAc2Man3GlcNAc) transferred onto the GlcNAc of GAb201
notes: as for B5

- Kd [4]: 7 to 30 nM
B4: anti-CD20 GAb106 (antibody, human IgG1, kappa)
heavy: not shown
light: B1 light
modifications: homogeneous N-glycan at Asn-297, no core fucose: glycan-106 (GalGlcNAcMan3GlcNAc) transferred onto the GlcNAc of GAb201
notes: as for B5
